For orientation: Kd means the equilibrium constant for the complex coming apart.

The target in assay [1] is C1ND (recombinant human CEACAM1 N-domain, residues 35-142, C-terminal Strep-Tag II, made in Expi293 cells) (human) (UniProt P13688). Nature of the assay: ELISA, C1ND coated, HopQ fragments titrated. For orientation: An ELISA detects its analyte on a solid surface through an enzyme-linked reagent.
Assay [2] shares this target. Nature of the assay: isothermal titration calorimetry, HopQ^AD titration with C1ND, 25 °C, 1:1 stoichiometry. On the technique in general: ITC needs no label: the signal is the heat of the interaction.

With “HopQ^ADΔID (HopQ^AD in which amino acids 190-218 of the mature protein are replaced by two glycines)”, the fold reduction of CEACAM1 binding affinity against HopQ^AD in assay [1] amounted to 10 fold.
For the substance “HopQ^AD (HopQ adhesin domain; soluble HopQ type I fragment of H. pylori strain G27, residues 37-463, C-terminal 6x His-tag)”, the Kd in assay [2] was 296 nM.

Source of the values: patent US20230087805A1.
